Laboratory results from patent publication US5279956A, “Activated protein C polypeptides and anti-peptide antibodies, diagnostic methods and systems for inhibiting activated protein C” (The Scripps Research Institute, priority 1991, dated 1994).

Assays:
APC [1] = molecular target: T1, APC (Homo sapiens, UniProt P04070); assay: Inhibition of APC by recombinant mutant (Arg358)-α1-antitrypsin, time course; type: biochemical; details: 18 nM APC and 100 nM α1-AT
T1 construct: begins at amino acid residue position 158 and ends at 419; The light chain is 155 amino acid residues in length; tissue Factor IX concentrate from Immuno AG, Vienna; thrombin from Enzyme Research Laboratories
Description: Since the number of amino acid residues involved in protease-protease inhibitor complexes is likely to be higher than the number of residues of APC involved in the cleavage of a small chromogenic substrate such as S-2366, the effect of peptide-(390-404) and peptide-(317-331) on the time course of inhibition of APC by a larger pseudosubstrate, recombinant mutant (Arg^358)-α1 -antitrypsin (α1 -AT) was evaluated. […] Heeb et al., J. Biol. Chem. 265:2365-2369 (1990).
Kinetic studies of inhibition of APC were performed with the higher affinity mutant α1 -AT pseudo-substrate. […] The change in absorbance was measured over time as described in the amidolytic assay. […]
Since the number of amino acid residues involved in protease-protease inhibitor complexes is likely to be higher than the number of residues of APC involved in the cleavage of a small chromogenic substrate such as S-2366, the effect of anti-(390-404) antibody on the time course of inhibition of APC by a larger pseudo-substrate, such as recombinant mutant (Arg^358)-α1 -AT was evaluated. […] The change in absorbance was measured over time as described in the amidolytic assay. […]

APC [2] = molecular target: T1, APC; details: Heeb et al. 1990; cited from earlier work

T1 sequence (P04070 212-461): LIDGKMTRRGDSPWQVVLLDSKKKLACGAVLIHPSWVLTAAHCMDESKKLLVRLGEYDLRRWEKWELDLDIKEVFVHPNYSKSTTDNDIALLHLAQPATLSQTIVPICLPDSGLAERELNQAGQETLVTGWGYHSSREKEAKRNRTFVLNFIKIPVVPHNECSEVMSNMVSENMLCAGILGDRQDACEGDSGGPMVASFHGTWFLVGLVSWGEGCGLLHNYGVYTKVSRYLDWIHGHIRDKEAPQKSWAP
T1 sequence (P04070 43-197): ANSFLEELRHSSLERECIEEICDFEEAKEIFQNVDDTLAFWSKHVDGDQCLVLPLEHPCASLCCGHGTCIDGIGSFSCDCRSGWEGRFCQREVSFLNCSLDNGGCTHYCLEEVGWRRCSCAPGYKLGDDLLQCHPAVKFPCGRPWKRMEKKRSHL

For “recombinant (Arg^358)α1 -AT: recombinant mutant α1-antitrypsin with Met358 substituted by Arg, pseudosubstrate inhibitor of APC (Transgene)”, the “calculated half-life for APC” value (APC [1]) is given as 2 min and the “increase in the association rate for APC by substitution of Met358 by Arg” value (APC [2]) is given as “over 4400 fold”.
